Assay results as given in patent US20170015742A1 (published 2017).

Legend:
[1] = biological target: recombinant human PDGF-BB (human, UniProt P01127 82-190); assay: cell-based or functional assay
[2] = biological target: recombinant human VEGF165 (human, UniProt P15692 207-395); assay: cell-based or functional assay
Chain of recombinant human VEGF165 (P15692 other isoform, or with tags, fused parts or gaps limits assumed): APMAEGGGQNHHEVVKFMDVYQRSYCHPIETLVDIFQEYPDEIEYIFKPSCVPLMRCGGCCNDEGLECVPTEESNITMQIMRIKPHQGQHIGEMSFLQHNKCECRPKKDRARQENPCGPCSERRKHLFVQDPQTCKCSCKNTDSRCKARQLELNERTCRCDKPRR

Chain of recombinant human PDGF-BB (P01127 82-190 limits assumed): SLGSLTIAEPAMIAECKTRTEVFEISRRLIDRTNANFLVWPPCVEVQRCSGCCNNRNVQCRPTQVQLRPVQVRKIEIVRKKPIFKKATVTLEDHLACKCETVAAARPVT

B1: 4G8.12-GS10-9E8.4 (bispecific antibody, human IgG1, kappa, L234A L235A)
heavy: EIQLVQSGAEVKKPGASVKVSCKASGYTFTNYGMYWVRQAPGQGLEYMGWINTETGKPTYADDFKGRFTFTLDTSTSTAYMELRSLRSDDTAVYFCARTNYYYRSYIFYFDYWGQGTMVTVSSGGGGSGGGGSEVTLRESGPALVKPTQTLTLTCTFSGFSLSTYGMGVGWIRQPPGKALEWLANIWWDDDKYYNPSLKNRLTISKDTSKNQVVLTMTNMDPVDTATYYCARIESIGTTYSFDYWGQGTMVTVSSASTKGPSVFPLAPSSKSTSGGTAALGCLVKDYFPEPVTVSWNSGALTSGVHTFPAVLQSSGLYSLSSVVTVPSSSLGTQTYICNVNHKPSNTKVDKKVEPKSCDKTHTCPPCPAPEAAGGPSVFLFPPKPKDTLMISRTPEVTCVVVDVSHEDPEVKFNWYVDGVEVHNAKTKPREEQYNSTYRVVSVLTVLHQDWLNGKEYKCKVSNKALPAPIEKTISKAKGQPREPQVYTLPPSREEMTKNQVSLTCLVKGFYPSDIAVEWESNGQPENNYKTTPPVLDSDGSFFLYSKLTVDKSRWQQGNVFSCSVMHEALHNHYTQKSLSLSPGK
light: DTVLTQSPATLSLSPGERATLSCRASESVSTHMHWYQQKPGQAPRLLIYGASNLESGVPARFSGSGSGTDFTLTISSLEPEDFAVYFCQQSWNDPFTFGQGTKLEIKRGGSGGGGSGEFVLTQSPGTLSLSPGERATLSCERSSGDIGDSYVSWYQQKPGQAPRLVIYADDQRPSGIPDRFSGSGSGTDFTLTISRLEPEDFAVYYCQSYDINIDIVFGGGTKVEIKRTVAAPSVFIFPPSDEQLKSGTASVVCLLNNFYPREAKVQWKVDNALQSGNSQESVTEQDSKDSTYSLSSTLTLSKADYEKHKVYACEVTHQGLSSPVTKSFNRGEC
- Potency IC50 (nM) NIH-3T3 hPDGF-BB [1]: 0.227 nM
- Potency IC50 (nM) HMVEC-d hVEGF165 [2]: 0.079 nM

B2: 4G8.13-GS10-9E8.4 (bispecific antibody, human IgG1, kappa, L234A L235A)
heavy: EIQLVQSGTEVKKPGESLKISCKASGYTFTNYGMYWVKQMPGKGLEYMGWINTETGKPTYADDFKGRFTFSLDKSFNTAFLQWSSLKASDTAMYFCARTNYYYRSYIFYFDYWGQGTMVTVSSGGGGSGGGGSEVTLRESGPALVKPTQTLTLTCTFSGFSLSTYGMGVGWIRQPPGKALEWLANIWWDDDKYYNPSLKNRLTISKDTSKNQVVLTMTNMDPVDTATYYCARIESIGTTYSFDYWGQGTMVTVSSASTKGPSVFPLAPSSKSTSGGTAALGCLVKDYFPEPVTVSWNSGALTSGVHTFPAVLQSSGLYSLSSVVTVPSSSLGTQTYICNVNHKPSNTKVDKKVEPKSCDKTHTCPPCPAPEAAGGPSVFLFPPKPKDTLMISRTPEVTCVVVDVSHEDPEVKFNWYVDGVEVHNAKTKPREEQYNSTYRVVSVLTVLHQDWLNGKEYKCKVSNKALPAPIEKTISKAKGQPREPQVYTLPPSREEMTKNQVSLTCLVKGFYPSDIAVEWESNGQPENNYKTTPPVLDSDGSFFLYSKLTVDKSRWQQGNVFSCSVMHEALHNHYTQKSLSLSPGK
light: ETVLTQSPATLSVSPGERATLSCRASESVSTHMHWYQQKPGQAPRLLIYGASNLESGVPARFSGSGSGTDFTLTISSLQSEDFAVYFCQQSWNDPFTFGQGTRLEIKRGGSGGGGSGEFVLTQSPGTLSLSPGERATLSCERSSGDIGDSYVSWYQQKPGQAPRLVIYADDQRPSGIPDRFSGSGSGTDFTLTISRLEPEDFAVYYCQSYDINIDIVFGGGTKVEIKRTVAAPSVFIFPPSDEQLKSGTASVVCLLNNFYPREAKVQWKVDNALQSGNSQESVTEQDSKDSTYSLSSTLTLSKADYEKHKVYACEVTHQGLSSPVTKSFNRGEC
- Potency IC50 (nM) NIH-3T3 hPDGF-BB [1]: 0.255 nM
- Potency IC50 (nM) HMVEC-d hVEGF165 [2]: 0.907 nM

B3: 4G8.14-GS10-9E8.4 (bispecific antibody, human IgG1, kappa, L234A L235A)
heavy: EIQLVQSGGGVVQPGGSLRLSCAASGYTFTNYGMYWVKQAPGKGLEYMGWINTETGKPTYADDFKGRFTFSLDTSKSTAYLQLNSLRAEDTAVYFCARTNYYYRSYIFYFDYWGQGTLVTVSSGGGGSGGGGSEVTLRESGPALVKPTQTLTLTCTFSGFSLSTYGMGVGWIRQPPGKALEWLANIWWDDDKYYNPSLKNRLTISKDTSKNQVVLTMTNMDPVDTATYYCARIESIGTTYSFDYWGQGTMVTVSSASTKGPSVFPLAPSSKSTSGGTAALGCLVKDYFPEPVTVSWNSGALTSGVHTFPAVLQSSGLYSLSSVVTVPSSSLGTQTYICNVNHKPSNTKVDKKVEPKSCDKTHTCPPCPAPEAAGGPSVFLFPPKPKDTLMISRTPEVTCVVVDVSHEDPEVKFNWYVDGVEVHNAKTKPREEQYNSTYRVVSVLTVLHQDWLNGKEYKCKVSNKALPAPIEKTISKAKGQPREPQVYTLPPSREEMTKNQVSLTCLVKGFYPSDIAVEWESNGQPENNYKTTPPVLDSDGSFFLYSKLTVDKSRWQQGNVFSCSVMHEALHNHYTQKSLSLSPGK
light: DTVLTQSPSTLSASPGERATISCRASESVSTHMHWYQQKPGQAPKLLIYGASNLESGVPSRFSGSRSGTDFTLTISSLQPEDFAVYFCQQSWNDPFTFGQGTKVEIKRGGSGGGGSGEFVLTQSPGTLSLSPGERATLSCERSSGDIGDSYVSWYQQKPGQAPRLVIYADDQRPSGIPDRFSGSGSGTDFTLTISRLEPEDFAVYYCQSYDINIDIVFGGGTKVEIKRTVAAPSVFIFPPSDEQLKSGTASVVCLLNNFYPREAKVQWKVDNALQSGNSQESVTEQDSKDSTYSLSSTLTLSKADYEKHKVYACEVTHQGLSSPVTKSFNRGEC
- Potency IC50 (nM) NIH-3T3 hPDGF-BB [1]: 0.459 nM
- Potency IC50 (nM) HMVEC-d hVEGF165 [2]: 0.113 nM

B4: 4G8.5_GS_CL-33675 (bispecific antibody, human IgG1, kappa, L234A L235A)
heavy: EIQLVQSGSELKKPGASVKVSCKASGYTFTNYGMYWVRQAPGQGLEYMGWINTETGKPTYADDFKGRFVFSLDTSVSTAYLQISSLKAEDTAVYFCARTNYYYRSYIFYFDYWGQGTMVTVSSGGGGSGGGGSEVTLRESGPALVKPTQTLTLTCTFSGFSLSTYGMGVGWIRQPPGKALEWLANIWWDDDKYYNPSLKNRLTISKDTSKNQVVLTMTNMDPVDTATYYCARIESSGPKYSFDYWGQGTMVTVSSASTKGPSVFPLAPSSKSTSGGTAALGCLVKDYFPEPVTVSWNSGALTSGVHTFPAVLQSSGLYSLSSVVTVPSSSLGTQTYICNVNHKPSNTKVDKKVEPKSCDKTHTCPPCPAPEAAGGPSVFLFPPKPKDTLMISRTPEVTCVVVDVSHEDPEVKFNWYVDGVEVHNAKTKPREEQYNSTYRVVSVLTVLHQDWLNGKEYKCKVSNKALPAPIEKTISKAKGQPREPQVYTLPPSREEMTKNQVSLTCLVKGFYPSDIAVEWESNGQPENNYKTTPPVLDSDGSFFLYSKLTVDKSRWQQGNVFSCSVMHEALHNAYTQKSLSLSPGK
light: ATQLTQSPSLSASVGDRVTITCRASESVSTHMHWYQQKPGKQPKLLIYGASNLESGVPSRFSGSGSGTDFTLTISSLQPEDFATYFCQQSWNDPFTFGQGTKLEIKGGSGGGGSGGEIVLTQSPGTLSLSPGERATLSCRASSGSIWYSFVSWYQQKPGQAPRLLIYADDQRASGIPDRFSGSGSGTDFTLTISRLEPEDFAVYYCQSYGINIDVVFGGGTKVEIKRTVAAPSVFIFPPSDEQLKSGTASVVCLLNNFYPREAKVQWKVDNALQSGNSQESVTEQDSKDSTYSLSSTLTLSKADYEKHKVYACEVTHQGLSSPVTKSFNRGEC
- Potency IC50 (nM) NIH-3T3 hPDGF-BB [1]: 0.05 nM
- Potency IC50 (nM) HMVEC-d hVEGF165 [2]: 0.076 nM

B5: 4G8.5_GS_3E2.1 (bispecific antibody, human IgG1, kappa, L234A L235A)
heavy: EIQLVQSGSELKKPGASVKVSCKASGYTFTNYGMYWVRQAPGQGLEYMGWINTETGKPTYADDFKGRFVFSLDTSVSTAYLQISSLKAEDTAVYFCARTNYYYRSYIFYFDYWGQGTMVTVSSGGGGSGGGGSEVQLVQSGAEVKKPGSSVKVSCKASGYTFTESYMYWVKQAPGQGLELIGRIDPEDGSTDYVEKFKNKATLTADKSTSTAYMELSSLRSEDTAVYFCARFGARSYFYPMDAWGQGTTVTVSSASTKGPSVFPLAPSSKSTSGGTAALGCLVKDYFPEPVTVSWNSGALTSGVHTFPAVLQSSGLYSLSSVVTVPSSSLGTQTYICNVNHKPSNTKVDKKVEPKSCDKTHTCPPCPAPEAAGGPSVFLFPPKPKDTLMISRTPEVTCVVVDVSHEDPEVKFNWYVDGVEVHNAKTKPREEQYNSTYRVVSVLTVLHQDWLNGKEYKCKVSNKALPAPIEKTISKAKGQPREPQVYTLPPSREEMTKNQVSLTCLVKGFYPSDIAVEWESNGQPENNYKTTPPVLDSDGSFFLYSKLTVDKSRWQQGNVFSCSVMHEALHNAYTQKSLSLSPGK
light: ATQLTQSPSLSASVGDRVTITCRASESVSTHMHWYQQKPGKQPKLLIYGASNLESGVPSRFSGSGSGTDFTLTISSLQPEDFATYFCQQSWNDPFTFGQGTKLEIKGGSGGGGSGGETVLTQSPATLSLSPGERATLSCRASESVSTLMHWYQQKPGQQPRLLIYGASNLESGVPARFSGSGSGTDFTLTISSLEPEDFAVYFCQQSWNDPWTFGGGTKVEIKRTVAAPSVFIFPPSDEQLKSGTASVVCLLNNFYPREAKVQWKVDNALQSGNSQESVTEQDSKDSTYSLSSTLTLSKADYEKHKVYACEVTHQGLSSPVTKSFNRGEC
- Potency IC50 (nM) NIH-3T3 hPDGF-BB [1]: 1.4 nM
- Potency IC50 (nM) HMVEC-d hVEGF165 [2]: 0.072 nM

B6: 9E10.1_GS_3E2.1 (bispecific antibody, human IgG1, kappa, L234A L235A)
heavy: EIQLVQSGSELKKPGASVKVSCKASGYTFTNYGMYWVKQAPGQGLEYMGWIDTETGRPTYADDFKGRFVFSLDTSVSTAYLQISSLKAEDTAVYFCARWSGDTTGIRGPWFAYWGQGTLVTVSSGGGGSGGGGSEVQLVQSGAEVKKPGSSVKVSCKASGYTFTESYMYWVKQAPGQGLELIGRIDPEDGSTDYVEKFKNKATLTADKSTSTAYMELSSLRSEDTAVYFCARFGARSYFYPMDAWGQGTTVTVSSASTKGPSVFPLAPSSKSTSGGTAALGCLVKDYFPEPVTVSWNSGALTSGVHTFPAVLQSSGLYSLSSVVTVPSSSLGTQTYICNVNHKPSNTKVDKKVEPKSCDKTHTCPPCPAPEAAGGPSVFLFPPKPKDTLMISRTPEVTCVVVDVSHEDPEVKFNWYVDGVEVHNAKTKPREEQYNSTYRVVSVLTVLHQDWLNGKEYKCKVSNKALPAPIEKTISKAKGQPREPQVYTLPPSREEMTKNQVSLTCLVKGFYPSDIAVEWESNGQPENNYKTTPPVLDSDGSFFLYSKLTVDKSRWQQGNVFSCSVMHEALHNAYTQKSLSLSPGK
light: DIRMTQSPSSLSASVGDRVTIECLASEDIYSDLAWYQQKPGKSPKLLIYNANGLQNGVPSRFSGSGSGTDYSLTISSLQPEDVATYFCQQYNYFPGTFGQGTKLEIKGGSGGGGSGGETVLTQSPATLSLSPGERATLSCRASESVSTLMHWYQQKPGQQPRLLIYGASNLESGVPARFSGSGSGTDFTLTISSLEPEDFAVYFCQQSWNDPWTFGGGTKVEIKRTVAAPSVFIFPPSDEQLKSGTASVVCLLNNFYPREAKVQWKVDNALQSGNSQESVTEQDSKDSTYSLSSTLTLSKADYEKHKVYACEVTHQGLSSPVTKSFNRGEC
- Potency IC50 (nM) NIH-3T3 hPDGF-BB [1]: 5.72 nM
- Potency IC50 (nM) HMVEC-d hVEGF165 [2]: 0.054 nM

B7: 9E10.6_GS_3E2.1 (bispecific antibody, human IgG1, kappa, L234A L235A)
heavy: EVQLVQSGAEVKKPGSSVKVSCKASGYTFTNYGMYWVRQAPGQGLEWMGWIDTETGRPTYADDFKGRFTFTADKSTSTAYMELSSLRSEDTAVYYCARWSGDTTGIRGPWFAYWGQGTLVTVSSGGGGSGGGGSEVQLVQSGAEVKKPGSSVKVSCKASGYTFTESYMYWVKQAPGQGLELIGRIDPEDGSTDYVEKFKNKATLTADKSTSTAYMELSSLRSEDTAVYFCARFGARSYFYPMDAWGQGTTVTVSSASTKGPSVFPLAPSSKSTSGGTAALGCLVKDYFPEPVTVSWNSGALTSGVHTFPAVLQSSGLYSLSSVVTVPSSSLGTQTYICNVNHKPSNTKVDKKVEPKSCDKTHTCPPCPAPEAAGGPSVFLFPPKPKDTLMISRTPEVTCVVVDVSHEDPEVKFNWYVDGVEVHNAKTKPREEQYNSTYRVVSVLTVLHQDWLNGKEYKCKVSNKALPAPIEKTISKAKGQPREPQVYTLPPSREEMTKNQVSLTCLVKGFYPSDIAVEWESNGQPENNYKTTPPVLDSDGSFFLYSKLTVDKSRWQQGNVFSCSVMHEALHNAYTQKSLSLSPGK
light: DIRMTQSPSSLSASVGDRVTITCLASEDIYSDLAWYQQKPGKSPKLLIYNANGLQNGVPSRFSGSGSGTDYTLTISSLQPEDVATYFCQQYNYFPGTFGQGTKLEIKGGSGGGGSGGETVLTQSPATLSLSPGERATLSCRASESVSTLMHWYQQKPGQQPRLLIYGASNLESGVPARFSGSGSGTDFTLTISSLEPEDFAVYFCQQSWNDPWTFGGGTKVEIKRTVAAPSVFIFPPSDEQLKSGTASVVCLLNNFYPREAKVQWKVDNALQSGNSQESVTEQDSKDSTYSLSSTLTLSKADYEKHKVYACEVTHQGLSSPVTKSFNRGEC
- Potency IC50 (nM) NIH-3T3 hPDGF-BB [1]: 1.32 nM
- Potency IC50 (nM) HMVEC-d hVEGF165 [2]: 0.06 nM

B8: 1B10.1_GS_CL-33675 (bispecific antibody, human IgG1, kappa, L234A L235A)
heavy: EVQLVESGGGLVQPGGSLRLSCAASGFSFSKYDMAWFRQAPGKGLEWVASITTSGVGTYYRDSVKGRFTVSRDNAKSTLYLQMNSLRAEDTAVYYCARGYGAMDAWGQGTTVTVSSGGGGSGGGGSEVTLRESGPALVKPTQTLTLTCTFSGFSLSTYGMGVGWIRQPPGKALEWLANIWWDDDKYYNPSLKNRLTISKDTSKNQVVLTMTNMDPVDTATYYCARIESSGPKYSFDYWGQGTMVTVSSASTKGPSVFPLAPSSKSTSGGTAALGCLVKDYFPEPVTVSWNSGALTSGVHTFPAVLQSSGLYSLSSVVTVPSSSLGTQTYICNVNHKPSNTKVDKKVEPKSCDKTHTCPPCPAPEAAGGPSVFLFPPKPKDTLMISRTPEVTCVVVDVSHEDPEVKFNWYVDGVEVHNAKTKPREEQYNSTYRVVSVLTVLHQDWLNGKEYKCKVSNKALPAPIEKTISKAKGQPREPQVYTLPPSREEMTKNQVSLTCLVKGFYPSDIAVEWESNGQPENNYKTTPPVLDSDGSFFLYSKLTVDKSRWQQGNVFSCSVMHEALHNAYTQKSLSLSPGK
light: DIQMTQSPSSLSASVGDRVTITCKASQDIDDYLSWYQQKPGKSPKLVIYAATRLADGVPSRFSGSGSGTDYTLTISSLQPEDFATYYCLQSSSTPWTFGGGTKVEIKGGSGGGGSGGEIVLTQSPGTLSLSPGERATLSCRASSGSIWYSFVSWYQQKPGQAPRLLIYADDQRASGIPDRFSGSGSGTDFTLTISRLEPEDFAVYYCQSYGINIDVVFGGGTKVEIKRTVAAPSVFIFPPSDEQLKSGTASVVCLLNNFYPREAKVQWKVDNALQSGNSQESVTEQDSKDSTYSLSSTLTLSKADYEKHKVYACEVTHQGLSSPVTKSFNRGEC
- Potency IC50 (nM) NIH-3T3 hPDGF-BB [1]: 0.037 nM
- Potency IC50 (nM) HMVEC-d hVEGF165 [2]: 0.05 nM
